Laboratory results: publication PMC5575297, “Interaction of lipopolysaccharides at intermolecular sites of the periplasmic Lpt transport assembly” (Scientific Reports, 2017)

T1: LptC construct lacking the 23 residues long N-terminal transmembrane domain (E. coli), P0ADV9
T1 chain: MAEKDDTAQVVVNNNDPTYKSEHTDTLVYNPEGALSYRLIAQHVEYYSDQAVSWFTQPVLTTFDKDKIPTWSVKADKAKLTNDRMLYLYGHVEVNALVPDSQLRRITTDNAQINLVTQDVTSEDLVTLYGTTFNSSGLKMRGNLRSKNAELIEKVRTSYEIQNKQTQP

B1: LptAm (monomeric E. coli LptA mutant, LptA Δ160-185) (domain or fragment, UniProt P0ADV1 28-159, looked up)
chain: VTGDTDQPIHIESDQQSLDMQGNVVTFTGNVIVTQGTIKINADKVVVTRPGGEQGKEVIDGYGKPATFYQMQDNGKPVEGHASQMHYELAKDFVVLTGNAYLQQVDSNIKGDKITYLVKEQKMQAFSDKGKR
notes: LptA, E. coli, residues 28-159; lacks the last C-terminal β-strand (Δ160-185); For NMR the protein was isotope-labelled (2H, 13C, 15N) or unlabelled; the purified protein is 28-159; also called monomeric LptA; C-terminally truncated LptA; source: E. coli BL21(DE3), pET21b, purified (HiTrap, S75 SEC)
B2: LptC construct lacking the 23 residues long N-terminal transmembrane domain (domain or fragment, E. coli, UniProt P0ADV9 24-191, looked up)
chain: T1 chain
notes: LptC, E. coli, lacking the first 23 residues (transmembrane domain); For NMR the protein was isotope-labelled (2H, 13C, 15N, or AILV methyl-labelled) or unlabelled; also called LptC dimer; source: E. coli M15 [prep4], pQESH plasmid, purified (HiTrap, S75 SEC)

Assays:
[1] = target: B2; test: SAXS; beamline BM29 (ESRF), 20 °C, NMR buffer with 0.5% w/v sucrose; LptAm 1.6 and 2.4 mg/ml, LptC 1, 2 and 3 mg/ml, LptAm:LptC 1:1 molar ratio at 3.6 and 5.4 mg/ml; extrapolated to zero dilution; settings: both partners purified
[2] = target: B1; test: SEC-MALS; 40 µl injected on Superdex S200 (10/300GL) in buffer B (50 mM sodium phosphate, 150 mM NaCl, pH 8) at 25 °C; proteins alone and LptC-LptAm mixtures (also with a two-times molar excess of LptAm); protein conjugate two-component analysis for the complex; settings: both partners purified
[3] = target: T1, LptC construct lacking the 23 residues …; test: as above; settings: remark: other sources report otherwise
[4] = target: B1; test: NMR titration; isotope-labelled LptC or LptAm with the unlabelled partner (1.2 molar equivalents); 2D BEST-TROSY / methyl spectra; 35 °C, buffer B with 5% D2O; submillimolar concentrations; settings: both partners purified
[5] = target: T1, LptC construct lacking the 23 residues …; test: SAXS; beamline BM29 (ESRF), 20 °C, NMR buffer with 0.5% w/v sucrose; LptAm 1.6 and 2.4 mg/ml, LptC 1, 2 and 3 mg/ml, LptAm:LptC 1:1 molar ratio at 3.6 and 5.4 mg/ml; extrapolated to zero dilution; settings: remark: other sources report otherwise

Binder: B1
- binding result [1]: binds

Binder: B2
- stoichiometry N [2]: 2 LptC:LptAm (2:1)
- stoichiometry N [3]: 2
- stoichiometry N [4]: ~1 LptC:LptAm molar ratio
- stoichiometry N [5]: 2
